Experimental data published in patent US20140193378A1 (UNIVERSITY OF MIAMI, published 2014).
Non-standard residues stand in square brackets, D forms with d. No end group written: not given here. *: point of attachment. Phe(F5) = N[C@@H](Cc1c(F)c(F)c(F)c(F)c1F)C(=O)O; Desaminotyrosyl = O=C(CCc1ccc(O)cc1)*; NMeY = CN[C@@H](Cc1ccc(O)cc1)C(=O)O; Agmatine = N=C(N)NCCCCN*; NMeA = CN[C@@H](C)C(=O)O; Nle = CCCC[C@H](N)C(=O)O; Orn = NCCC[C@H](N)C(=O)O; Abu = CC[C@H](N)C(=O)O; Ava = NCCCCC(=O)O; GABA = NCCCC(=O)O

T1: human GHRH receptor (human pituitary membrane homogenates) (human, UniProt Q02643 23-423)
T1 construct: whole, on cells; Native receptor in human pituitary membrane homogenates, not on intact cells; also called hGHRH receptor
T1 sequence (looked up): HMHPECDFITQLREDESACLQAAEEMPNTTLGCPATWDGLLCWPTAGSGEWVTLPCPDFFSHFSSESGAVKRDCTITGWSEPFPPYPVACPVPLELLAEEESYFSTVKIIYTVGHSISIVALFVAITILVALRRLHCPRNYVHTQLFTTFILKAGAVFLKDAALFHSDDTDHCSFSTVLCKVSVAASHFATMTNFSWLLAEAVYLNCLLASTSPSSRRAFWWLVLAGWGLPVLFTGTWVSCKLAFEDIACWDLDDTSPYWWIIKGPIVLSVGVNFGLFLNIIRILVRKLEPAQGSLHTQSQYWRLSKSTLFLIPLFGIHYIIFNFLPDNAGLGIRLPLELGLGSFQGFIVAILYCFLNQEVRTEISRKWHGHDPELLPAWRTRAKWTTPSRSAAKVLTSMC

B1: P-22326 [N-Me-Tyr^1, D-Ala^2, Gln^8, Orn^12, Abu^15, Orn^21, Nle^27, Asp^28, Apa^30]hGHRH(1-30)NH2 (peptide)
peptide: [NMeY][dA]DAIFTQSYR[Orn]VL[Abu]QLSAR[Orn]LLQDI[Nle]DR[Ava]-NH2
modifications: N-terminus assumed
SMILES: CCCC[C@H](NC(=O)[C@@H](NC(=O)[C@H](CC(=O)O)NC(=O)[C@H](CCC(N)=O)NC(=O)[C@H](CC(C)C)NC(=O)[C@H](CC(C)C)NC(=O)[C@H](CCCN)NC(=O)[C@H](CCCNC(=N)N)NC(=O)[C@H](C)NC(=O)[C@H](CO)NC(=O)[C@H](CC(C)C)NC(=O)[C@H](CCC(N)=O)NC(=O)[C@H](CC)NC(=O)[C@H](CC(C)C)NC(=O)[C@@H](NC(=O)[C@H](CCCN)NC(=O)[C@H](CCCNC(=N)N)NC(=O)[C@H](Cc1ccc(O)cc1)NC(=O)[C@H](CO)NC(=O)[C@H](CCC(N)=O)NC(=O)[C@@H](NC(=O)[C@H](Cc1ccccc1)NC(=O)[C@@H](NC(=O)[C@H](C)NC(=O)[C@H](CC(=O)O)NC(=O)[C@@H](C)NC(=O)[C@H](Cc1ccc(O)cc1)NC)[C@@H](C)CC)[C@@H](C)O)C(C)C)[C@@H](C)CC)C(=O)N[C@@H](CC(=O)O)C(=O)N[C@@H](CCCNC(=N)N)C(=O)NCCCCC(N)=O
notes: also called Peptide 22326
B2: P-27414 [N-Me-Tyr^1, D-Ala^2, Fpa5^6, Orn^12, Abu^15, Orn^21, Nle^27, Gab^30]hGHRH(1-30)NH-CH3 (peptide)
peptide: [NMeY][dA]DAI[Phe(F5)]TNSYR[Orn]VL[Abu]QLSAR[Orn]LLQDI[Nle]SR[GABA]-NHMe
notes: also called Peptide 27414
B3: P-25501 [N-Me-Tyr^1, D-Ala^2, Orn^12, Abu^15, Orn^21, Nle^27, Gab^30]hGHRH(1-30)NH2 (peptide)
peptide: [NMeY][dA]DAIFTNSYR[Orn]VL[Abu]QLSAR[Orn]LLQDI[Nle]SR[GABA]-NH2
modifications: N-terminus assumed
SMILES: CCCC[C@H](NC(=O)[C@@H](NC(=O)[C@H](CC(=O)O)NC(=O)[C@H](CCC(N)=O)NC(=O)[C@H](CC(C)C)NC(=O)[C@H](CC(C)C)NC(=O)[C@H](CCCN)NC(=O)[C@H](CCCNC(=N)N)NC(=O)[C@H](C)NC(=O)[C@H](CO)NC(=O)[C@H](CC(C)C)NC(=O)[C@H](CCC(N)=O)NC(=O)[C@H](CC)NC(=O)[C@H](CC(C)C)NC(=O)[C@@H](NC(=O)[C@H](CCCN)NC(=O)[C@H](CCCNC(=N)N)NC(=O)[C@H](Cc1ccc(O)cc1)NC(=O)[C@H](CO)NC(=O)[C@H](CC(N)=O)NC(=O)[C@@H](NC(=O)[C@H](Cc1ccccc1)NC(=O)[C@@H](NC(=O)[C@H](C)NC(=O)[C@H](CC(=O)O)NC(=O)[C@@H](C)NC(=O)[C@H](Cc1ccc(O)cc1)NC)[C@@H](C)CC)[C@@H](C)O)C(C)C)[C@@H](C)CC)C(=O)N[C@@H](CO)C(=O)N[C@@H](CCCNC(=N)N)C(=O)NCCCC(N)=O
notes: also called Peptide 25501
B4: P-20357 [Dat^1, D-Ala^2, N-Me-Ala^8, Orn^12, Abu^15, Orn^21, Nle^27, Asp^28, Agm^29]hGHRH(1-29)NH2 (peptide)
peptide: [Desaminotyrosyl][dA]DAIFT[NMeA]SYR[Orn]VL[Abu]QLSAR[Orn]LLQDI[Nle]D[Agmatine]
SMILES: CCCC[C@H](NC(=O)[C@@H](NC(=O)[C@H](CC(=O)O)NC(=O)[C@H](CCC(N)=O)NC(=O)[C@H](CC(C)C)NC(=O)[C@H](CC(C)C)NC(=O)[C@H](CCCN)NC(=O)[C@H](CCCNC(=N)N)NC(=O)[C@H](C)NC(=O)[C@H](CO)NC(=O)[C@H](CC(C)C)NC(=O)[C@H](CCC(N)=O)NC(=O)[C@H](CC)NC(=O)[C@H](CC(C)C)NC(=O)[C@@H](NC(=O)[C@H](CCCN)NC(=O)[C@H](CCCNC(=N)N)NC(=O)[C@H](Cc1ccc(O)cc1)NC(=O)[C@H](CO)NC(=O)[C@H](C)N(C)C(=O)[C@@H](NC(=O)[C@H](Cc1ccccc1)NC(=O)[C@@H](NC(=O)[C@H](C)NC(=O)[C@H](CC(=O)O)NC(=O)[C@@H](C)NC(=O)CCc1ccc(O)cc1)[C@@H](C)CC)[C@@H](C)O)C(C)C)[C@@H](C)CC)C(=O)N[C@@H](CC(=O)O)C(=O)NCCCCNC(=N)N
notes: also called Peptide 20357
B5: P-20367 [N-Me-Tyr^1, D-Ala^2, Orn^12, Abu^15, Orn^21, Nle^27, Asp^28, Agm^29]hGHRH(1-29)NH2 (peptide)
peptide: [NMeY][dA]DAIFTNSYR[Orn]VL[Abu]QLSAR[Orn]LLQDI[Nle]D[Agmatine]
notes: also called Peptide 20367
B6: P-27400 [Dat^1, D-Ala^2, Orn^12, Abu^15, Orn^21, Nle^27, Asp^28]hGHRH(1-29)NH-CH3 (peptide)
peptide: [Desaminotyrosyl][dA]DAIFTNSYR[Orn]VL[Abu]QLSAR[Orn]LLQDI[Nle]DR-NHMe
SMILES: CCCC[C@H](NC(=O)[C@@H](NC(=O)[C@H](CC(=O)O)NC(=O)[C@H](CCC(N)=O)NC(=O)[C@H](CC(C)C)NC(=O)[C@H](CC(C)C)NC(=O)[C@H](CCCN)NC(=O)[C@H](CCCNC(=N)N)NC(=O)[C@H](C)NC(=O)[C@H](CO)NC(=O)[C@H](CC(C)C)NC(=O)[C@H](CCC(N)=O)NC(=O)[C@H](CC)NC(=O)[C@H](CC(C)C)NC(=O)[C@@H](NC(=O)[C@H](CCCN)NC(=O)[C@H](CCCNC(=N)N)NC(=O)[C@H](Cc1ccc(O)cc1)NC(=O)[C@H](CO)NC(=O)[C@H](CC(N)=O)NC(=O)[C@@H](NC(=O)[C@H](Cc1ccccc1)NC(=O)[C@@H](NC(=O)[C@H](C)NC(=O)[C@H](CC(=O)O)NC(=O)[C@@H](C)NC(=O)CCc1ccc(O)cc1)[C@@H](C)CC)[C@@H](C)O)C(C)C)[C@@H](C)CC)C(=O)N[C@@H](CC(=O)O)C(=O)N[C@@H](CCCNC(=N)N)C(=O)NC
B7: P-28421 [N-Me-Tyr^1, D-Ala^2, Orn^12, Abu^15, Orn^21, Nle^27, Asp^28]hGHRH(1-29)NH-CH2-CH3 (peptide)
peptide: [NMeY][dA]DAIFTNSYR[Orn]VL[Abu]QLSAR[Orn]LLQDI[Nle]DR-NHEt
notes: also called Peptide 28421
B8: P-27404 [N-Me-Tyr^1, D-Ala^2, Fpa5^6, Orn^12, Abu^15, Orn^21, Nle^27, Asp^28]hGHRH(1-29)NH-CH3 (peptide)
peptide: [NMeY][dA]DAI[Phe(F5)]TNSYR[Orn]VL[Abu]QLSAR[Orn]LLQDI[Nle]DR-NHMe
B9: P-27409 [N-Me-Tyr^1, D-Ala^2, Orn^12, Abu^15, Orn^21, Nle^27, Asp^28]hGHRH(1-29)NH-CH3 (peptide)
peptide: [NMeY][dA]DAIFTNSYR[Orn]VL[Abu]QLSAR[Orn]LLQDI[Nle]DR-NHMe
notes: also called Peptide 27409; MR-409
B10: P-27410 [N-Me-Tyr^1, D-Ala^2, Thr^8, Orn^12, Abu^15, Orn^21, Nle^27, Asp^28]hGHRH(1-29)NH-CH3 (peptide)
peptide: [NMeY][dA]DAIFTTSYR[Orn]VL[Abu]QLSAR[Orn]LLQDI[Nle]DR-NHMe
notes: also called Peptide 27410
B11: P-20359 [N-Me-Tyr^1, D-Ala^2, Fpa5^6, Orn^12, Abu^15, Orn^21, Nle^27, Asp^28, Agm^29]hGHRH(1-29)NH2 (peptide)
peptide: [NMeY][dA]DAI[Phe(F5)]TNSYR[Orn]VL[Abu]QLSAR[Orn]LLQDI[Nle]D[Agmatine]
notes: also called Peptide 20359
B12: P-27401 [Dat^1, D-Ala^2, Gln^8, Orn^12, Abu^15, Orn^21, Nle^27, Asp^28, D-Arg^29]hGHRH(1-29)NH-CH3 (peptide)
peptide: [Desaminotyrosyl][dA]DAIFTQSYR[Orn]VL[Abu]QLSAR[Orn]LLQDI[Nle]D[dR]-NHMe
SMILES: CCCC[C@H](NC(=O)[C@@H](NC(=O)[C@H](CC(=O)O)NC(=O)[C@H](CCC(N)=O)NC(=O)[C@H](CC(C)C)NC(=O)[C@H](CC(C)C)NC(=O)[C@H](CCCN)NC(=O)[C@H](CCCNC(=N)N)NC(=O)[C@H](C)NC(=O)[C@H](CO)NC(=O)[C@H](CC(C)C)NC(=O)[C@H](CCC(N)=O)NC(=O)[C@H](CC)NC(=O)[C@H](CC(C)C)NC(=O)[C@@H](NC(=O)[C@H](CCCN)NC(=O)[C@H](CCCNC(=N)N)NC(=O)[C@H](Cc1ccc(O)cc1)NC(=O)[C@H](CO)NC(=O)[C@H](CCC(N)=O)NC(=O)[C@@H](NC(=O)[C@H](Cc1ccccc1)NC(=O)[C@@H](NC(=O)[C@H](C)NC(=O)[C@H](CC(=O)O)NC(=O)[C@@H](C)NC(=O)CCc1ccc(O)cc1)[C@@H](C)CC)[C@@H](C)O)C(C)C)[C@@H](C)CC)C(=O)N[C@@H](CC(=O)O)C(=O)N[C@H](CCCNC(=N)N)C(=O)NC
B13: P-28420 [N-Me-Tyr^1, D-Ala^2, Gln^8, Orn^12, Abu^15, Orn^21, Nle^27, Asp^28]hGHRH(1-29)NH-CH2-CH3 (peptide)
peptide: [NMeY][dA]DAIFTQSYR[Orn]VL[Abu]QLSAR[Orn]LLQDI[Nle]DR-NHEt
notes: also called Peptide 28420
B14: P-27408 [Dat^1, D-Ala^2, Gln^8, Orn^12, Abu^15, Orn^21, Nle^27, Asp^28]hGHRH(1-29)NH-CH3 (peptide)
peptide: [Desaminotyrosyl][dA]DAIFTQSYR[Orn]VL[Abu]QLSAR[Orn]LLQDI[Nle]DR-NHMe
SMILES: CCCC[C@H](NC(=O)[C@@H](NC(=O)[C@H](CC(=O)O)NC(=O)[C@H](CCC(N)=O)NC(=O)[C@H](CC(C)C)NC(=O)[C@H](CC(C)C)NC(=O)[C@H](CCCN)NC(=O)[C@H](CCCNC(=N)N)NC(=O)[C@H](C)NC(=O)[C@H](CO)NC(=O)[C@H](CC(C)C)NC(=O)[C@H](CCC(N)=O)NC(=O)[C@H](CC)NC(=O)[C@H](CC(C)C)NC(=O)[C@@H](NC(=O)[C@H](CCCN)NC(=O)[C@H](CCCNC(=N)N)NC(=O)[C@H](Cc1ccc(O)cc1)NC(=O)[C@H](CO)NC(=O)[C@H](CCC(N)=O)NC(=O)[C@@H](NC(=O)[C@H](Cc1ccccc1)NC(=O)[C@@H](NC(=O)[C@H](C)NC(=O)[C@H](CC(=O)O)NC(=O)[C@@H](C)NC(=O)CCc1ccc(O)cc1)[C@@H](C)CC)[C@@H](C)O)C(C)C)[C@@H](C)CC)C(=O)N[C@@H](CC(=O)O)C(=O)N[C@@H](CCCNC(=N)N)C(=O)NC
notes: also called Peptide 27408
B15: P-27403 [N-Me-Tyr^1, D-Ala^2, Gln^8, Orn^12, Abu^15, Orn^21, Nle^27, Asp^28]hGHRH(1-29)NH-CH3 (peptide)
peptide: [NMeY][dA]DAIFTQSYR[Orn]VL[Abu]QLSAR[Orn]LLQDI[Nle]DR-NHMe

target: T1, human GHRH receptor (human pituitary …); experiment: radioligand competition vs 125I-JV-1-42 (0.2 nM), human pituitary membranes
Source text: Normal human pituitaries were purchased from the National Hormone and Peptide Program (A. F. Parlow, Los Angeles, County Harbor-UCLA Medical Center, Torrance, Calif.).

Row | Relative affinity (Binding potency) vs JI-38 | Binder
1 | 6.12 fold | B1
2 | 2.79 fold | B2
3 | 4.07 fold | B3
4 | 5.06 fold | B4
5 | 2.56 fold | B5
6 | 1.3 fold | B6
7 | 2.96 fold | B7
8 | 5 fold | B8
9 | 4.1 fold | B9
10 | 5.24 fold | B10
11 | 1.43 fold | B11
12 | 1.59 fold | B12
13 | 8.37 fold | B13
14 | 7.91 fold | B14
15 | 27.2 fold | B15
